From publication PMC6689989 come the findings set out here.

In general, Km refers to the concentration of substrate that gives half-maximal velocity.

The test system of data set [1] is NCC(=O)O. The experiment in a line: purified protein. The note with it: Na+ primary substrate (S1) binding site, near F259 and I359.
The test system of data set [2] is C[C@H](N)C(=O)O. The experiment in a line: purified protein. Conditions: Na+ primary substrate (S1) binding site, W259.

As for LeuT (Aquifex aeolicus VF5), the Km in data set [1] is 1.2 ± 0.2 µM. Take LeuT (Aquifex aeolicus VF5; F259W): the Km in data set [2] was 3.7 ± 0.9 µM.
